The target in test [1] is USP7 catalytic domain (CD).
Test [2] deals with TAMRA-labelled p53 peptide (UniProt P04637). The test is described as follows: fluorescence polarisation; 25 nM TAMRA-p53 peptide with a dilution series of USP7 constructs; plate reader; 20 mM HEPES pH 7.5, 100 mM NaCl, 1 mM DTT, 1 mM EDTA, 0.05% Tween-20. On the technique in general: In fluorescence polarisation assays a small probe gives low polarisation when free and higher when bound to something large.

Test [3] has as its target USP7 catalytic domain (CD). The test is described as follows: covalent suicide-probe reaction (preparative); 120 µM CD (or TCD) incubated overnight with an excess of probe and Ubl45 (both 150 µM) under dialysis against 20 mM HEPES pH 7.5, 50 mM NaCl, 2 mM DTT.
Test [4] has as its target USP7 catalytic domain CD (Homo sapiens) (UniProt Q93009). The test can be described thus: activation assay. The following applies: cited from earlier work.
In test [5] the target is GST-Ubl45 (immobilised) (UniProt Q93009). The test is described as follows: SPR; around 50 units of Ubl45 immobilised, titration range of p53Ub-bound TCD flowed over; equilibrium fit. (In general: In SPR one partner is held on a chip, and binding of the other changes the refractive index at the surface.)
In test [6] the target is USP7 CD45 (catalytic domain linked to Ubl45). The test can be described thus: SEC-MALS; Superdex 200 in 20 mM HEPES pH 7.5, 100 mM NaCl, 1 mM DTT, in-line MALLS; CD45 100 µL of 45 µM, FL 80 µL of 20 µM loaded. On the technique in general: SEC sorts molecules by how far they enter the pores of the column.
The target in test [7] is USP7 CD12345 (catalytic domain with Ubl domains 1-5 and tail, no TRAF domain) (UniProt Q93009).
For test [8], the target named is USP7-TCD (TRAF domain and catalytic domain, lacks all Ubl domains).
For test [9], the target named is full-length (FL) USP7 (UniProt Q93009).
Test [10] addresses USP7-TCD (TRAF domain and catalytic domain, lacks all Ubl domains). The test can be described thus: covalent suicide-probe reaction (preparative); 120 µM CD (or TCD) incubated overnight with an excess of probe and Ubl45 (both 150 µM) under dialysis against 20 mM HEPES pH 7.5, 50 mM NaCl, 2 mM DTT.
Test [11] concerns the target USP7 CD12345^ΔC (UniProt Q93009).
In test [12] the target is USP7 C-terminal tail peptide (residues 1083-1102), biotinylated (UniProt Q93009). The test is described as follows: SPR; N-terminally biotinylated C-terminal tail peptide immobilised (~30 RU) on SA chip, CD or CDUb flowed over; Biacore T200, 25 °C; same running buffer.
For test [13], the target named is GST-Ubl45 (immobilised) (UniProt Q93009). The test is described as follows: SPR; GST-Ubl45 or GST-Ubl45ΔC captured by anti-GST antibody on CM5 chip, covalent CDUb flowed over; Biacore T200, 25 °C; same running buffer; equilibrium fit and EvilFit.

Turning to “USP7 Ubl45 (last two Ubl domains with the activating C-terminal tail) (from UniProt Q93009 890-1102) (domain or fragment)”, the apparent KD from in trans activation of CD (20 nM) DUB activity on UbRho, titration of Ubl45 in test [1] came out at 110 µM. In the case of “full-length (FL) USP7 (from UniProt Q93009 1-1102) (enzyme)”, in test [2], the Kd (commonly the concentration at which binding is half-saturated) turned out to be 0.16 µM. Regarding “ubiquitin-propargyl (Ub-PA) suicide probe (from UniProt P0CG48 1-76)”, the percent of CD reacted with the probe in test [3] stood at 80%. “USP7 C-terminal peptide C-terminal tail (from UniProt Q93009)”: the Kd in test [4] is 1000 µM. “TCD-p53Ub (USP7-TCD covalently bound to the p53UbVA probe) (from UniProt P04637 357-389; P0CG48 1-76) (complex)” displayed a Kd in test [5] of 2.9 µM. For the substance “USP7 CD45 (catalytic domain linked to Ubl45) (domain or fragment)”, in test [6], the stoichiometry N (as a rule, the number of molecules, sites or subunits per partner or assembly) was 2. “p53Ubinh (non-hydrolysable, triazole-linked ubiquitinated p53 peptide) (from UniProt P04637 357-389; P0CG48 1-76)” had an IC50 of inhibition of UbRho hydrolysis by p53Ubinh (CD12345 0.35 nM): fold by which the IC50 of FL is better than that of CD12345 in test [7] of 60 fold. For the same substance, in test [8], the IC50 of inhibition of UbRho hydrolysis by p53Ubinh (TCD 200 nM): fold by which the IC50 of FL is better than that of TCD turned out to be 60 fold. Further, the IC50 of inhibition of UbRho hydrolysis by p53Ubinh (FL 0.35 nM, UbRho 0.4 µM) in test [9] turned out to be 0.016 µM. As for “p53UbVA (covalently binding, vinylamide-linked ubiquitinated p53 peptide, res. 357-389) (from UniProt P04637 357-389; P0CG48 1-76)”, in test [10], the percent reacted with the probe is 100%.

For “USP7 CD12345^C223A (from UniProt Q93009 1-1102) (domain or fragment)”, the apparent KD (K (D,app)) from activation of CD12345^ΔC (20 nM) DUB activity on UbRho, titration of CD12345^C223A in test [11] is 60 µM. Regarding “CDUb (USP7 catalytic domain covalently coupled to ubiquitin through Ub-PA) (from UniProt P0CG48 1-76) (complex)”, the dissociation constant Kd in [12] came out at 2.6 µM; in test [13] it was 0.59 µM. Moreover, the koff (as a rule, a measure of how fast the partners let go of each other) in test [13] worked out at 0.8 s⁻¹.

The record behind these values is PMC6335408.
